B1: Coiled-coil domain-containing protein 124 (Homo sapiens), Q96CT7 (parent)
chain: MPKKFQGENTKSAAARARRAEAKAAADAKKQKELEDAYWKDDDKHVMRKEQRKEEKEKRRLDQLERKKETQRLLEEEDSKLKGGKAPRVATSSKVTRAQIEDTLRRDHQLREAPDTAEKAKSHLEVPLEENVNRRVLEEGSVEARTIEDAIAVLSVAEEAADRHPERRMRAAFTAFEEAQLPRLKQENPNMRLSQLKQLLKKEWLRSPDNPMNQRAVPFNAPK

How the values were obtained:
[1] = variants of: B1; settings: with npm_human NPM1, P06748
[2] = variants of: B1; settings: with npm_human NPM1, P06748; remark: listed apart in the source

npm_human NPM1, P06748, sequence (P06748 whole entry): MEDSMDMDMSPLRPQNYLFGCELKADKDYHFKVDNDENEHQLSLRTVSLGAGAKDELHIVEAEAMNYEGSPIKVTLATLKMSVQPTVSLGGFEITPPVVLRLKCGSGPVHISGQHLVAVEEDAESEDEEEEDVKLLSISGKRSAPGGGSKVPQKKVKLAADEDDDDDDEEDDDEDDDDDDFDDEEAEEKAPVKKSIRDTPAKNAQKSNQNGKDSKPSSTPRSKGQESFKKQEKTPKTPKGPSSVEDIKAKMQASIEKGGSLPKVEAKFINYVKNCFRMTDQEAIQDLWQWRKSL

effect of a mutation on the interaction [1] | effect of a mutation on the interaction [2] | Variant
decreasing interaction strength | with no effect | S141A
decreasing interaction strength | with no effect | S122A;S141A
decreasing interaction strength | disrupting interaction strength | S122A

Source: IntAct's records for PubMed 38029384
